What was measured:
[1] = target: T1, SARS-CoV-2 spike receptor-binding domain (RBD) (SARS-CoV-2, UniProt P0DTC2, biotin (biotinylated RBD in the BLI experiments only)); assay: bead-based multiplex ACE2 competition assay
[2] = target: T1, SARS-CoV-2 spike receptor-binding …; assay: BLI

B1: nanobody NM1230 (VHH)
VHH: QVQLVESGGGLVRPGGSLRLSCVGSGFTFSGYAMNWYRQAPGKALELVAGISNAGDLTHYEEPMKGRVAISRANDKNTVYLQMDDLKPEDTAVYRCHAPGVRVGTGERKDVWGQGAQVTVSS
IC50 [1]: 2.12 nM | Kd [2]: 8.23 nM
